Test results taken from patent publication US6355481.

Target: HAP1-A (Huntingtin Associated Protein 1-A) (UniProt P54256)
Assay: cell-based or functional assay

Sequence of HAP1-A (Huntingtin Associated Protein 1-A) (P54256 other isoform, or with tags, fused parts or gaps limits assumed): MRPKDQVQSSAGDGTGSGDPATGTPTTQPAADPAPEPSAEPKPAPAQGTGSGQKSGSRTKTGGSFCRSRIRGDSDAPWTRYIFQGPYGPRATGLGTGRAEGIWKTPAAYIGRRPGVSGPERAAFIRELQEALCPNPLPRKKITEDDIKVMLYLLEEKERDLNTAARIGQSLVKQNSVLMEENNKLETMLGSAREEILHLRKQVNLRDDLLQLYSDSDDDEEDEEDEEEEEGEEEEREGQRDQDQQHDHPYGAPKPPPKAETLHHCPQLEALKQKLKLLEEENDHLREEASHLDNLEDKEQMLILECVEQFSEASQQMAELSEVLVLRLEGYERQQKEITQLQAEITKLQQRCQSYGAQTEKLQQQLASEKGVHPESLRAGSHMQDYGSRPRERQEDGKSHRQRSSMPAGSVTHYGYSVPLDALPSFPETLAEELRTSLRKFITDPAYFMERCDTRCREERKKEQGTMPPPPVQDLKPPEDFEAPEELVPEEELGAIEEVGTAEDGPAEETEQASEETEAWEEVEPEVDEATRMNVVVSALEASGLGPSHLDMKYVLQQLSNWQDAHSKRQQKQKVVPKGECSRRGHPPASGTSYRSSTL

| Substance | percentage of HAP1-A and huntingtin double-transfected PC12 cells with elongated neurites |
| --- | --- |
| N-terminal region of human huntingtin protein (amino acids 1-253) with 73 glutamines (HD-73Q) (from UniProt P42858 1-253) | 15.2% |
| N-terminal region of human huntingtin protein (amino acids 1-253) with 120 glutamines (HD-120Q) (from UniProt P42858 1-253) | 7.5% |
